According to patent US8680241B2 (priority 2009, dated 2014):

Target: peptide-6 (SEQ ID NO. 15) (Mycobacterium tuberculosis, UniProt P9WPE7)

B1: VH2/VK3: humanized anti-peptide-6 IgG1; heavy chain variable region SEQ ID NO: 21, light chain variable region SEQ ID NO: 26 (antibody, V domains shown)
VH: QVTLKESGPALVKPTQTLTLTCSFSGFSLSTSNMGVGWIRQPAGKGLEWLLHILWNDSKYYNPALKSRLTISKDTYKNQVVLTMTNMDPVDTATYYCARMGGYYGNYGYYAMDYWGQGTLVTVSS
VL: QIVLTQSPATLSLSPGERATLSCTASSSVSSSYLHWYQQKPGKAPKLWIYSTSNLASGVPSRFSGSGSGTDYTLTISSLQPEDFATYYCHQYHRSPPTFGQGTKLEIK
modifications: IgG1 constant regions; VH2 amino acid sequence; VK3 amino acid sequence
Q: With B1 as the molecule, how does the “binding to peptide-6 directly compared to VH2/VK2 on the same plate” value read?
A: The value was “marginally the best binding”.
